Source: the nanobody polyreactivity screen of Harvey et al. (2022)

Experiment: yeast display, Sf9 membrane polyspecificity reagent, FACS + sequencing; frameworks hold sequencing errors
Method in brief: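 After 36–48 hours of galactose induction, yeast (Saccharomyces cerevisiae BJ5465) displaying a synthetic nanobody library were stained at 4 °C for 1 hour with 10% biotinylated, detergent-solubilized Sf9 membrane reagent. Streptavidin microbeads enriched the stained cells before FACS sorting into low and high (top ~1%) gates on anti-HA and streptavidin fluorescence. Each clone's polyreactivity label reflects its gate of origin.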

Row | Sequence | polyreactivity (PSR sort gate)
1 | QVQLVESGGGLVQAGGSLRLSCAASGRIFGRNAMGWYRQAPGKEREFVAGITTNGGRTYYADSVKGRFTISRDYAKNSVFLQMNSLIPEDTAVYYWAAVRYYFLKYYYWGQGTQVTVSS | high polyreactivity
2 | QVQLEESGGGLVQAGGSLRLSCAASGSIFYKYAMGWYRQAPGKEREFVATIRYSGGSTYYADSVKGRFTISRDNAKNTVYLQMNILKPEDTAVFYCAADAYSYGYDSWGQGTQVTVSS | high polyreactivity
3 | QVQHVESGGGLVQSGGSLRLSCAASGRIFDYNAMGWSRQAPGKERELVAAITSSSGSSTYYADSVKGRFTISRDNAKNTVYLQMNSLIPVDTAVYYCNAGGSDIYLSPFDYWGQGTQVTVSS | low polyreactivity
4 | QVQLVESGGGLVHAGGSLRLSCAASGSIFTDYAMGWYRQAPGKERELVAVIDIDGSTYYADSVKGRFTISRDNEKNSVYLQMNSLKPEDTAVYYCAAGYTYYSLYGYWGQGTQVTVSS | low polyreactivity
5 | QVQLVESGGGLVQAGGSLRLSCAASGFTFVIHDMGWYRQAPGKERELVADITSGGDTYYADSVKGRFTISRDNAKNTVYLQMNSQKPEDTAVYYCAADIYPDWIYLLYGYWGQGTQGTVSS | low polyreactivity
6 | QVQLVESGGGLVQAGGSLRLSCAASGRIFQIYAMGWYRQAPGKERELVAAIRSGSNTNYADSVKGRFTISRDNAMNTVYLQMNSLKPEDTAVYYCNALYTSLRKYNYWGQGTQVTVSS | low polyreactivity
7 | QVQLVESGGGLVQAGGSLRLSCAASGSIFAFYAMGWYRQAPGKERELVAVISASGGSTYYADSVKGRFISRDNAKNTVSLQMNSLKPEDTAVYYCAAGTSTNSGTVPEEEDYWGQGTQVTVSS | low polyreactivity
8 | QDQLVESGAGLVQAGGSLRLSCAASGRIFDRYAMGWYRQAPGKEREMVAAITTSSGGSTYYADSVKGRFTISRDNAKNTVYLQMHSLKPEDTAVYYCAADRRYNVIGEFGYWGQGTQVTVSS | low polyreactivity
9 | QDQHVESGGGLVQAGGSLRLSCAASGRIYDPYAMGWYRPAPGKERELVATISYSDGSTYYADSVKGRFTISRDNAKNTVYLQMNSLKPEDTAVYYGNAEFVGWWGYPTVLRLEYWGQGTQVTVSS | low polyreactivity
10 | QVQLVESGGGLVQAGGSLRLSCAASGITIYGNAMGWYRQAPGKERELVAAITFSGGITYYADSVKGRFTISRDNAKNTVYLQMNSLKPEDTAVYYCATDPIGGWTRPQRYGDDYWGQGTQVTVSS | low polyreactivity
11 | QVQLVESGGGLVQAGGSLRVSCAASGIIFVVYDMGWYRQAPGKERELVAAINWSGGSTYYADSVKGRFTISRDNAKNTVYLQMNSLKPEDTAVYYCAAESFSDGSPYNYWGQGTQVTVSS | low polyreactivity
12 | QLQLQESGGGLVQGGGSLRLSCAASGSIYRSWYMGWYRQAPGKERELVASMTEGATTNYAYSVKAALPLAAITRNPVYLQMDSMKPEDTAVYYRAASFGSTYDLVYWGKGTQVTVSS | high polyreactivity
13 | QVQLVESGGGLVQAGGSLRLSCAASGYIFDLNAMGWSRQAPGKERELVAANSTGGGTYYADSVKGRFTISRDNAKNTVYLQMNILKPEDTAVYYCAADWGYWYAEYDYWGQGTQVTVSS | low polyreactivity
14 | QVQLVESGGGLVQAGGSLRLSCAASGYIFKPNTMGWYRQAPGKERELVAAITRGGRTKYADSVKGRFTISRDNAKNTVYLQMNSLKPEDTAVYYCAAALPVQYRDMYSWGQGTQVTVSS | high polyreactivity
15 | QVQLVESGGGLVQAGGSLRLSCAASGFIFRNYVMGWYRQAPGKERELVAAINWSTGTTNYADSVKGGFTISRDNAKNTVYLQMNSLKPEDTAVYYCNARYRLRYIYSLRYDYWGQGTQVTVSS | high polyreactivity
16 | QGQRVESAGGLVQAGGSLRLSCDASGRIFDNYAMGWSSPAPGKERELVAAISRAGNTYADSVKGRVTISRDNAKNTVNLQMNSLNPEETAVFYCAARLYWGRYNYWGQGTQVTVSS | high polyreactivity
17 | QVQLVESGGGLVQAGGSLRLSCAASGFNFGGYAMGWYRQAPGKERELVARITRSGGSTYYADSVKGRFTISRDNAKNTVYLQMNSLKPEDTAVYYCNADTPPNPYYYWGQGTQVTVSS | low polyreactivity
18 | QVQLVESGGGLVQAGGSLRLSCAASGRTFVVNAMGWYRQAPGKERELVAAIYADSVKGRFTISRDNEKNTVYLQMNSLKPEDTAVYYCAASGGTWVNYRPEYDYWGQGTQVTVSS | low polyreactivity
19 | QVQLVESGGGLVQAGGSLRLSCAASGSTFTYYAMGWYRQAPGKERELVAAITWSGVSTYYADSVKGRFTISRDNAKNTVYLQMNSLKPEDTAVYYCANGYSYGWWGGFGYWGQGTQVTVSS | high polyreactivity
20 | QVQLVESGGGLVQAGGRLRLSCAPSGSTFTANDMGWYRQAPVKERELVAAISISGTRTYYADSVKGRFTISRDNAKNTVYLQMNSLKPEDTAVYYGNKATSYFTVRGYDYWGQGTQVTVSS | high polyreactivity
21 | QVQLVESGGGLVQAGGSLRLSCAASGSTLGRNAMGWYRQAPGKERELVAGIDGSAGSTYYADSVKGRFTISRDNAKNSVYLQMNSLKPEDTAVYYCNADVIDLDYDYWGQGTQVTVSS | low polyreactivity
22 | QVELVESAAGLVQAGASLRLSCAASGTTIKSYVMGWYRQPPGKETELVAAISSGDSTYYADSVKGRFTISRDNAKNTVYLQMNSLNPEDTAVYYCAADPCYSVEPWEDDYWGQGSQVTVSS | low polyreactivity

Row | Sequence | polyreactivity (PSR sort gate)
23 | QVQLVESGGGLVQAGGSLRISCAASGINFVTYAMGWYRKAPGKEREFVASINWITGNTYYADSVKGRFTISRDNAKNTVYLQMNSLKPEDTAVYYCATVDWSLYLGTPPSYYWGQGTQVTVSS | low polyreactivity
24 | QVQLVESGGGLVQAGGSLRLSCAASGSIFASYAMGWYRQAPGKESELVAAITYSGSRTYYADSVKGRFTISRYNAKNTVYLQMNSMKPEDTAVYYCNADYYWYPYEDDYWGQGSQVTVSS | low polyreactivity
25 | QVQLVESGGGLVQAGGSLRLSCAASGSIFNIYAMGWYRQAPGKERELVATITGIADSTYYADSVKGRFTISRDNAKNTVYLQMNSLKPEDTAVYFCAAKYGSRYTTGQTRRDYYSWGQGTQVTVSS | low polyreactivity
26 | QVQLVESGGGLVQAGGSLRLSCAPSGRTFVWNAMGWYRQAPVKERELVAAITSGGSTNYADSVKGRFTISRDNAKNTVYLQMNSLKAEDTAVYYCAAYPDYYEDDYWGQGTQVTVSS | low polyreactivity
27 | QVQLVESGGGLVQAGGSLRLSCAASGRIFARKAMGWYRQAPGKEGELVARIRASGGSTYYADSVKGRFTISRDNAKNTVYLQMNSLKPEDTAVYYCNARTSSPYRVDYWGQGTQVTVSS | high polyreactivity
28 | QVQLVESGGGLVQAGGSLRLSCAASGYIFVRNAMGWYRQAPGKEREFVAAISGSGGSTYYADSVKGRFTISRDNAKNTVYFQMNSMKPEDTAVYYCAADYATVTWRGIAYDYWGQGTQVTVSS | low polyreactivity
29 | QVQLVESGGGLVQAGGSLRLSCAASGRILVHNAMGWYRQAPGKERELVAAITWSGGSTYYADSVKGRFTISRDNAKNTFYLQMNSLKPEDTAVYYCAAEQWRYDGSFTGYGYWGQGTQVTVSS | low polyreactivity
30 | QVQIVESGGGLVQAGGSLRLSCAASGSIFLKYAMGWYRQAPGKERELVATFSRGGSTNYADSVKGRFTISRDNAKITVYFQMNSLKPEDTAVYNCARRRTYPPGRYYYWGQGTQVTVSS | high polyreactivity
31 | QVQLVESGAGLVQAGGSLRLSCAASGFIYEWYTMGWYTQAPGKERELVARISTDGSTTYADSVKGRFTISRDHAKKTVYLQMNSLKPEDTSVYYCAADVTYPGLKYIFDYWGQGTQVTVSS | low polyreactivity
32 | QVQLVESGGGLVQAGGSLRLSCAASGPTFRYYAMGWYRQAPGKERELVATITGSGGSTYYADSVKGRFTISRDNAKNTVYLQMNSLKPEDTAVYYCNARKVRYPYRWYDYWGQGTQVTVSS | high polyreactivity
33 | QVQLVESGGGLVQAGGSLRLSCAASGRTFPFNAMGWYRQPPGKERELVAVINSGGSTYYADSVKGRFTISRDNAKNTVYLQMNSLKPEDTAVYYCYVKRYLWFTDLLYDYWGQGTQVTVSS | high polyreactivity
34 | QVQLVESGGGLVQAGGSLRLSCAASGSTFVYNAMGWYRQAPGKERELVAAITRRGGGTYYADSVKGRFTISRDNAKNTVYLQMNSLKPEDTAVYYCAADSRGWSLDGDYWGQGTQVTVSS | low polyreactivity
35 | QDQLVESGGGIVQAGGSLRLSCAASGRTFYRYAMGWYRQAPGKERELVATISGGGSTNYADSVKGRFTISRDNAKNTVYFQMNSLKPEDTAVYYCAVRLRPPYYLPYYYWGQGTQVTVSS | high polyreactivity
36 | QVQLQESGGGLEQAGGSLRLSCAASGIIFDNPNMGWYRQAPGKERELVATINSGATTNYADSVKGRFTISRDNAKNTVYLQMNSLIPEDTAVYYCAVDLSPTYFYYWGQGTQVTVSS | high polyreactivity
37 | QVQLVESGGGLVQAGGSLRLSCAASGSTFQAYAMGWYRQAPGKERELVAAISVSDGITYYADSVKGRFTISRDNAKNTVYLQMNSLKPEDTAVNYCAAEISLSRSDRIESYDYWGQGTQVTVSS | low polyreactivity
38 | QVQLVESGGGLVQAGGSLRLSCAASGSIFNANAMGWYRQAPAKERELVAAITPSDGDTYYADSVKGRFTISRDNAKNTVYLQMNSLKPEDTAVYYCAAEDDPGEYEYWGQGTQVTVSS | low polyreactivity
39 | QVQLVESGGGLVQAGGSLRLSCAASGLTFVWYAMGWYRQAPGKERELVAAIRGGGSTYYADSVKGRFTISRDNAKNTVYLQMNSLKPEDTAVYYCNARYYGAHSPYRFDYWGQGTQVTVSS | high polyreactivity
40 | IIPAGGSLRLSCAASGATLIGYTMGWYRQAPGKERELVDAITWGAGSTNYADSVKGRFTISRDNAKNTVYLQMNSLKPEDTAVYDCNADSISDPRYLGEYDYWGQGTQVTVSS | low polyreactivity
41 | QVQLVESGGGLVQAGGSLRLICAASGSIFNGYVMGWYRQAPGKERELVASINRGGTTNYADSVKGRFTISRDNAKNTVYLLMNSLKPEETAVYYCAVDDDANSLGGYYVLFDYWGQGTQVTVSS | low polyreactivity
42 | QVQLVESGGGLVQAGGSLRLSCAASGRTCYYTMGWYRPAPGKDRELVAAITWSVDSTYYADSVKGRFTISRDNAKNTVYLHMNSLKPEVTAVYYCAVQPPPLNGLYDYWGQGTQVTVSS | low polyreactivity
43 | QVQLVESGGGLVQAGGSLRLSCAASGRILAINVMGWYRQAPGKERELVAAITLSSGSTYYADSVKGRFTMSRDNAKNTVYFQMNSLKPEDTAVYYCAADVYSGLSEGYYWGQGTQVTVSS | low polyreactivity
